According to US20090181444A1, “MODIFIED CARBOHYDRATE PROCESSING ENZYME” (priority 2002, published 2009):

Legend:
Assay type in all cases: biochemical
[1] = Kinetic assay with p-nitrophenyl β-D-galactopyranoside, absorbance at 405 nm; conditions: pNPGal
Description: The kinetic activity of SsδG was assessed using ultra-violet/visible spectroscopy. Cleavage of the glycosidic bond of the nitrophenyl sugar analogue releases a chromophore (Scheme 18), either p-nitrophenol or o-nitrophenol.
The absorbance of these chromophores at 405 nm was continuously measured at regular time intervals, and the Beer-Lambert Law used to calculate the chromophore concentration at each of these time intervals.
In order to use this equation the extinction coefficient, ∈, of both p-nitrophenol and o-nitrophenol were calculated. Enzyme kinetic parameters were assessed using the initial rates method. The gradient of a plot of chromophore concentration against time gave the initial rate of reaction at a series of substrate concentrations (0.05-10 mM). Kinetic parameters were calculated by regression analysis of the kinetic data on the Michaelis-Menten Model (Fersht, A., Enzyme Structure and Mechanism, W.H. Freeman and Company, New York (1985)). The initial rate of reaction was measured. This model is valid when [substrate]>>[enzyme], which are initial rate conditions.
KM and νmax were calculated from non-linear Michaelis-Menten and linear Lineweaver-Burk plots. From these values, kcat and kcat/KM were calculated and compared.
KM=νmax/2, it is the concentration of substrate at which half the active sites are filled. Higher KM values correspond to weaker binding and lower KM values correspond to stronger binding kcat, the turnover number is the number of substrate molecules which are converted to product when the enzyme is saturated with substrate and ν (rate) is maximised. Given both of these considerations, binding and rate, kcat/KM is typically as a measure of the overall relative activity of the enzyme. To allow comparison of the activity of the enzymes, ln({kcat/KM}mutant/{kcat/KM}WT) was calculated for each enzyme-substrate combination, to give overall activity relative to WT.
Substrate solutions (concentration 10 mM in 50 mM pH 6.5 phosphate buffer) were prepared. Kinetic assays were conducted in a 96-well flat bottom microtitre plate. Eight substrate concentrations were chosen for the assay from the range 0.05 mM to 10 mM (prepared from 10 mM stock solution), based on previous experimental experience of the kinetics of each enzyme (default range 0.05 mM to 2.00 mM)*. The enzyme stock solution (˜1 mgmL^−1) was diluted between 16- and 80-fold depending on the kinetic parameters determined*. The enzyme solution (496 µL) was dispensed into a 1.5 mL sealed Eppendorf tube. Into eight further Eppendorf tubes a portion of each substrate solution (650 μL) was dispensed. The tubes were incubated in a Techni Dri Block at 45° C. Simultaneously a 96-well flat bottom microtitre plate was incubated at 45° C. in a plate reader. […] The plate containing the enzyme and substrate solutions was then incubated in the plate reader at 45° C. to allow equilibration. […] Release of p-nitrophenol/o-nitropbenol was measured by absorbance at […], with an automix of 3 s before the first read and Is between every subsequent read. The run time chosen was between 6 min and 10 min*, and readings were taken at intervals of between 6 s and 10 s*.
A graph of concentration of the released chromophore (either pNP or oNP) against time was drawn for each concentration using Microsoft Excel. […] These gradients were entered into Grafit, which calculated KM and νmax from the Michelis-Menten and Lineweaver-Burk plots. From these kcat and kcat/KM could be calculated. […]

[2] = Hydrolysis of 4-methylumbelliferyl-β-D-galactoside, initial rates; conditions: 4-MUGal, 80° C., pH 6.5
Description: (§1) Parameters were determined by the method of initial rates. Activity was measured in time course assays of the hydrolysis of 4-methylumbelliferyl-β-D-glycosides (β-D-gluco, β-D-galacto, β-D-fuco, β-D-manno, β-D-xylo, β-D-glucurono) at 5-15 concentrations (0.001-1.5 mM) incubated at 80° C. in 50 mM sodium phosphate buffer, pH 6.5. Reactions were terminated at 2, 5, 10, 15 min by the addition of 100 μl of ice cold 1M NazCO3, pH 10 and analyzed (Labsystems Fluoroscan Ascent plate reader, […]). KM and kcat were derived by fitting the initial rates to hyperbolic Michaelis-Menten curves using GraFit 4 (Erithacus Software Ltd, Staines, UK).
(§2) Determination of the Michaelis-Menten parameters for the WT and mutant enzymes was performed at pH 6.5 at 80° C. for a broad range of representative, fluorophore-containing 4-methylumbelliferyl glycoside substrates, which allowed activities to be determined with a high degree of sensitivity (Table). Under these optimized assay conditions, the glucoside (Glc), galactoside (Gal) and fucoside (Fuc) substrates were hydrolysed well by SSβG-WT, but the xyloside (Xyl) substrate was hydrolysed relatively poorly (approx. 3% of turnover as determined by kcat compared with β-D-glucoside). […] In all cases the absolute D-stereospecificity and β-stereoselectivity of SSβG was maintained and no activity was detected towards L- or α-glycoside substrates.

[3] = Hydrolysis of 4-methylumbelliferyl-β-D-glucoside, initial rates; conditions: 4-MUGlc, 80° C., pH 6.5
Description: as §1, §2

B1: WT: Wild type β-glycosidase from Sulfolobus solfataricus (SEQ ID NO: 2), recombinant with N-terminal His6-tag (protein, listed as Sulfolobus solfataricus)
chain: MYSFPNSFRFGWSQAGFQSEMGTPGSEDPNTDWYKWVHDPENMAAGLVSGDLPENGPGYWGNYKTFHDNAQKMGLKIARLNVEWSRIFPNPLPRPQNFDESKQDVTEVEINENELKRLDEYANKDALNHYREIFKDLKSRGLYFILNMYHWPLPLWLHDPIRVRRGDFTGPSGWLSTRTVYEFARFSAYIAWKFDDLVDEYSTMNEPNVVGGLGYVGVKSGFPPGYLSFELSRRHMYNIIQAHARAYDGIKSVSKKPVGIIYANSSFQPLTDKDMEAVEMAENDNRWWFFDAIIRGEITRGNEKIVRDDLKGRLDWIGVNYYTRTVVKRTEKGYVSLGGYGHGCERNSVSLAGLPTSDFGWEFFPEGLYDVLTKYWNRYHLYMYVTENGIADDADYQRPYYLVSHVYQVHRAINSGADVRGYLHWSLADNYEWASGFSMRFGLLKVDYNTKRLYWRPSALVYREIATNGAITDEIEHLNSVPPVKPLRH
modifications: N-terminal His6 tag
Question: With B1 as the molecule, how does the kcat ([1]; 45° C., pH 6.5 phosphate buffer, averaged over 3 runs, except * 2 runs) read?
Answer: 5.07 s⁻¹

Question: And the Km ([1]; 45° C., pH 6.5 phosphate buffer, averaged over 3 runs, except * 2 runs, read-out: KM)?
Answer: 459 µM

Question: What about the Km ([1]; read-out: average KM) of the same molecule?
Answer: 459 µM

Question: And the Km [2]?
Answer: 66 ± 17 µM

Question: What about the kcat [2] of the same molecule?
Answer: 98 ± 7 s⁻¹

Question: What about the Km [3] of the same molecule?
Answer: 46 ± 17 µM

Question: And the kcat [3]?
Answer: 140 ± 20 s⁻¹
